The supplement of paper PMC10567573

B1: PLD5 (parent)
chain: WIVDKQHVYIGSAGLDWQSLGQMK
B2: KLHDC10 (parent)
chain: PSLLELAWEKLLAAFPNLANLSRT

Variants of: B1
Assay: protein stability index of a GFP-peptide fusion (GPS, HEK-293T) (PSI 1-6); higher = more stable
Conditions: c terminus: a fixed tail appended
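Further: lentivirally expressed fusions sorted by FACS into six bins by GFP to DsRed ratio, PSI derived from sequencing read proportions per bin multiplied by bin number.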

Protein stability index of substitutions, site by site:
W1: H 2.12; N 2.19; R 2.77; F 2.4; G 2.67; P 2.32; I 3.17; S 2.2; M 1.43; E 2.24; D 2.15; V 1.79; K 2.32; L 2.12; Q 2.5; Y 2.23; A 2.11; T 2.41; C 1.59

Variants of: B2
Assay: as above
Conditions: c terminus: a fixed tail appended

Protein stability index of substitutions, site by site:
W8: A 1.77; N 2.37; M 1.95; E 2.97; I 1.87; V 2.19; D 2.37; L 1.58; K 2.61; F 2.56; H 2.54; T 1.94; Q 2.88; Y 2.04; G 2.78
A13: C 2.01; H 2.83; V 1.79; M 2.51; R 1.8; Q 2.25; S 2.28; I 2.46; G 2.06; K 1.95; N 2.04; Y 1.85; E 1.99; D 2.12; T 2.2
E5: N 2.72; K 2.28; Q 2.49; D 2.88; R 2.29; Y 2.47; I 1.8; L 2.19; F 2.06; W 1.93; M 2.04; H 2.39; C 1.97
L3: V 1.73; K 2.33; A 2.24; Q 2.29; M 1.65; E 1.83; D 2.16; T 1.97; H 1.75; N 1.63; S 1.7; G 1.56
F15: T 2.1; S 1.92; R 2.11; E 2.36; P 2.49; W 2.4; G 2.08; M 2.06; Q 2.52; H 2.06; Y 1.7; K 1.78
S2: K 2.17; L 2.19; H 1.78; N 1.77; T 1.96; W 1.94; D 2.67; I 1.17; C 1.34; R 1.82; P 2.25; E 2.03; G 1.72; V 1.86; A 2.09; M 1.61; Y 2.36
P1: F 2.52; Y 1.67; M 1.94; R 2.12; E 3.28; T 1.85; N 2.17; W 1.8; D 2.06; V 2; Q 2.21; H 2.21; A 2.42; S 1.85; C 1.86
T24: Y 2.32; Q 1.56; A 2.34; G 2.17; I 2.03; H 2.56; V 2.29; N 2.23; K 2.25; D 2.79
A14: T 2.2; M 2.19; Y 3; H 2.15; N 2.2; S 2.86; F 2.82; I 2.83; P 2.07; L 2.75; K 2.1; Q 2.05; V 2.4; E 2.11; G 1.81; W 3.3
P16: C 2.23; I 1.63; F 1.51; Y 2.06; D 2.2; S 1.4; E 1.45; H 1.55; A 1.84; V 3.1; N 2.03; G 1.25
L6: A 1.94; E 1.81; H 1.59; R 1.72; C 1.92; Q 2; T 2.23; F 2.01; S 2.28; K 3.43; G 1.64; W 3.58
L4: S 3.52; F 2.75; D 2.07; K 3.92; G 2.58; C 3.05; T 3.05; E 2.1; I 2.01; W 2.53; V 2.26
E9: Y 1.59; Q 2.34; M 1.61; L 2.29; C 1.5; R 2.37; F 1.44; N 2.62; T 2.39; H 1.93; V 1.72; G 2; A 1.84
L12: P 2.17; T 2.37; W 1.71; Q 2.23; A 2.52; H 2.33; G 2.66; F 2.3; C 1.83; K 3.22
L21: C 2.16; M 2.25; F 2.54; Q 2.05; G 2.22; Y 2.4; A 2.14; P 2.07; K 2.38; H 2.72; R 2.38; W 2.6; S 2.17
R23: S 1.55; G 2.76; M 1.87; D 1.28; K 2.16; N 2.17; T 2.22; E 1.87; L 2.42; A 1.55; C 1.98; P 1.99; W 2.34; I 1.78; V 2.33
N20: P 1.89; R 1.89; D 1.51; K 1.49; Q 2.09; E 2.25; C 2.68; I 2.24; H 2.46; V 2.47; Y 2.22; T 1.62
K10: L 2.42; W 2.53; H 2.09; V 2.07; S 1.72; A 1.84; M 2; Y 1.75; D 1.84; T 1.69; R 1.9
A7: N 2.28; L 2.29; P 1.77; Q 2.29; E 2.74; D 2.14; Y 2.08; I 1.97; H 1.33; T 1.28; K 2.73; F 1.86; C 2.23; M 2.33; S 2.58
S22: G 1.9; H 2.11; R 2.71; E 2.59; T 2.3; P 2.21; C 2.34; A 2.81; L 2.4; D 1.95; N 2.23; V 1.78; W 2.21
L11: T 1.92; K 1.62; H 1.92; V 2.5; W 2.06; Q 2.19; G 1.69; Y 2.19; M 1.6; C 1.88; R 2.07; A 2.36; N 2.26; E 2.55; D 2.14
N17: D 2.03; F 2.25; M 2.56; E 1.62; I 2.01; H 2.13; G 3.66; K 1.43; V 2.18; A 2.5; Y 2.44
A19: M 2.1; S 2; V 2.3; E 2.31; R 2.4; L 1.8; C 2.04; K 1.95; G 2.17; Q 2.37; N 2.29; I 2.32; P 2.29; W 1.57
L18: D 2.1; A 2.15; K 1.78; T 1.96; Y 1.86; G 2.56; E 2.35; M 1.84; C 2.23; R 1.73; Q 2.35; S 2.01; F 2.52
